{"source": "paper PMC3249085", "about": "(The Journal of Biological Chemistry, 2011)", "proteins": {"B1": {"name": "outer membrane protein OmpF (receptor)", "chain": "AEIYNKDGNKVDLYGKAVGLHYFSKGNGENSYGGNGDMTYARLGFKGETQINSDLTGYGQWEYNFQGNNSEGADAQTGNKTRLAFAGLKYADVGSFDYGRNYGVVYDALGYTDMLPEFGGDTAYSDDFFVGRVGGVATYRNSNFFGLVDGLNFAVQYLGKNERDTARRSNGDGVGGSISYEYEGFGIVGAYGAADRTNLQEAQPLGNGKKAEQWATGLKYDANNIYLAANYGETRNATPITNKFTNTSGFANKTQDVLLVAQYQFDFGLRPSIAYTKSKAKDVEGIGDVDLVNYFEVGATYYFNKNMSTYVDYIINQIDSDNKLGVGSDDTVAVGIVYQF", "modifications": "partially deuterated (d-OmpF) in the SANS samples; hydrogenous or deuterated in the neutron reflection samples"}}, "biological_target": "the molecule itself", "test": "small angle neutron scattering"}
{"protein": "B1", "values": [{"measurement": "stoichiometry N", "value": 3}]}
